Here are results for 4 molecules from paper PMC4596477, “Interaction of Myosin Phosphatase Target Subunit (MYPT1) with Myosin Phosphatase-RhoA Interacting Protein (MRIP): A Role of Glutamic Acids in the Interaction” (PLoS ONE, 2015).

For one data set, the target named is T1, MRIP^724-878 (Homo sapiens, UniProt Q6WCQ1).
T1 construct: MRIP^724-878 (residues 724–878; CC2-CC4); made in house; host or cells: Escherichia coli BL21 (DE3)
T1 sequence (Q6WCQ1 725-879): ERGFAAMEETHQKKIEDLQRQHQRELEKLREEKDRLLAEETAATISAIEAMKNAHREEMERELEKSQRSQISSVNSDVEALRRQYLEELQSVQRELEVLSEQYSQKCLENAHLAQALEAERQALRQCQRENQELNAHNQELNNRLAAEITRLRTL
As to the kind of experiment: SPR, MYPT1 peptides as analytes over immobilized MRIP^724-878. It counts as binding. To be noted: 25°C, pH 7.4, CCLR 167–1 μM, CC 318–10 μM, LR 569–5 μM. The procedure:
To corroborate the results from AUC studies, SPR was employed. […] Equilibrium K d values were obtained by nonlinear curve fitting of reference-corrected curves using the steady-state affinity fitting model in BIAevaluation version 4–1.
Analytes CCLR, CC, LR: Interactions between analytes, CCLR (167–1 μM), CC (318–10 μM), and LR (569–5 μM) with immobilized ligand, MRIP^724-878 (1800 RU) after correction for nonspecific binding using G-actin (2230 RU). Shown is a representative out of 9 experiments for CCLR and 8 for LR in each, duplicates or triplicates. Insets show fittings of steady-state affinity. Ligand LR: Interaction of analyte, MRIP^724-878 (85.6–0.7 μM) with immobilized ligand, LR (244.8 RU) after correction for nonspecific binding using a nebulin-derived peptide (600 RU). Shown is a representative out of 6 experiments.
Binding analyses of SPR were conducted on a Biacore 3000 (GE Healthcare) at 25°C. Sensor chips and reagents for immobilization (1-ethyl-3-(3-dimethylaminopropyl) carbodiimide, N-hydroxyl-succinimide, and ethanolamine) were purchased from GE Healthcare. Peptides were immobilized onto a CM5 sensor chip at 232–5841 resonance units (RU) using amine coupling. Binding studies were done using two-fold serial dilutions of the peptides in 50 mM potassium phosphate buffer (pH 7.4) containing 100 mM KCl. […]

For data set [1], the target named is T2, MRIP^724-878 (myosin phosphatase-RhoA interacting protein, residues 724–878; CC2-CC4) (UniProt Q6WCQ1 724-878).
T2 construct: Tight homodimer in solution by AUC; the forward primer puts an NdeI ATG before the codons GAGCGAGGGTTTGCAGCAATG; source: E. coli BL21 (DE3), purified (chitin beads, C8 reversed-phase HPLC)
T2 sequence (looked up): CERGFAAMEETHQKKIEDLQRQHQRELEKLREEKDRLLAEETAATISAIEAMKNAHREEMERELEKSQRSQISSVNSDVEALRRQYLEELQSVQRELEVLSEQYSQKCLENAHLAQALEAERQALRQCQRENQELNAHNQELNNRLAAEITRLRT
The data set is described as follows: SPR; Biacore 3000, 25°C; MRIP^724-878 immobilised (1800 RU) by amine coupling on CM5, analytes CCLR (167–1 μM), CC (318–10 μM), LR (569–5 μM); reference surface G-actin; 50 mM potassium phosphate pH 7.4, 100 mM KCl; steady-state affinity fit. To be noted: both partners purified.

For data set [2] the following is noted: ref [14]; cited from earlier work. The procedure:
The concentration ranges of the MRIP peptides in the mixtures overlap with those of the MRIP peptides by themselves (Fig 2). Thus, the greater s* values of the MRIP/MYPT1 mixtures than those of the individual MRIP peptides indicate that MRIP^545-878 monomer, MRIP^724-878 dimer, and the mixture of monomer and dimer of MRIP^724-837 bind to CCLR. […] To obtain the binding stoichiometry, AUC was performed using MRIP^724-878/CCLR mixtures at different ratios of the two peptides. MRIP^724-878 was chosen because the AUC stu ... || To obtain the binding stoichiometry, a series of sedimentation equilibrium experiments was performed. MRIP^724-878 was chosen due to its being a single species. Owing to the absence of aromatic residues, LR was employed. AUC was conducted using MRIP^724-878 alone, LR alone, the 1:1 mixture of MRIP^724-878/LR, and the 1:3 mixture of MRIP^724-878/LR. Sedimentation data were collected both at 280 nm to detect only MRIP^724-878 and at 220 nm to detect both.

The target of data set [3] is T2, MRIP^724-878 (myosin phosphatase-RhoA …). The data set is described as follows: SPR; Biacore 3000, 25°C; LR immobilised (244.8 RU) by amine coupling on CM5, analyte MRIP^724-878 (85.6–0.7 μM); reference surface a nebulin-derived peptide; 50 mM potassium phosphate pH 7.4, 100 mM KCl; steady-state affinity fit. To be noted: both partners purified.
A further data set relates to MRIP. Set-up: method as in PMID 16243315. The settings on record: double point mutations in CC5; ref [12]; cited from earlier work.

B1: CCLR, MYPT1 peptide (residues 924–1030) containing a putative coiled coil domain (CC) and the leucine repeat region (LR) (domain or fragment, UniProt O14974 924-1030, looked up)
chain: LEKDDSTDFKKLYEQILAENEKLKAQLHDTNMELTDLKLQLEKATQRQERFADRSLLEMEKRERRALERRISEMEEELKMLPDLKADNQRLKDENGALIRVISKLSK
notes: myosin phosphatase target subunit (MYPT1); also called C-terminal region of MYPT1; source: E. coli BL21 (DE3), purified (chitin beads, C8 reversed-phase HPLC)
With B1, the “complex formation with immobilized MRIP^724-878” value with MRIP^724-878 is “formed complexes”. The molecule also registered a Kd in data set [1] of 14 µM. The self-association entry in data set [2] is “reversible self-association”.

B2: LR, leucine repeat region of MYPT1 (residues 991–1030) (peptide, UniProt O14974 991-1030, looked up)
chain: ERRISEMEEELKMLPDLKADNQRLKDENGALIRVISKLSK
notes: no result of its own is told for it; also called WT-LR; source: E. coli BL21 (DE3), purified (chitin beads, C8 reversed-phase HPLC)
Consider B2, for which the Kd in data set [1] turned out to be 195 µM; in data set [3] it was 40 µM.

B3: L905P/I912P: MRIP mutation employed by Mulder et al; double point mutation in CC5 (protein, UniProt Q6WCQ1 2-1025, looked up, variant L905P I912P)
Myosin phosphatase …: SAAKENPCRKFQANIFNKSKCQNCFKPRESHLLNDEDLTQAKPIYGGWLLLAPDGTDFDNPVHRSRKWQRRFFILYEHGLLRYALDEMPTTLPQGTINMNQCTDVVDGEGRTGQKFSLCILTPEKEHFIRAETKEIVSGWLEMLMVYPRTNKQNQKKKRKVEPPTPQEPGPAKVAVTSSSSSSSSSSSIPSAEKVPTTKSTLWQEEMRTKDQPDGSSLSPAQSPSQSQPPAASSLREPGLESKEEESAMSSDRMDCGRKVRVESGYFSLEKTKQDLKAEEQQLPPPLSPPSPSTPNHRRSQVIEKFEALDIEKAEHMETNAVGPSPSSDTRQGRSEKRAFPRKRDFTNEAPPAPLPDASASPLSPHRRAKSLDRRSTEPSVTPDLLNFKKGWLTKQYEDGQWKKHWFVLADQSLRYYRDSVAEEAADLDGEIDLSACYDVTEYPVQRNYGFQIHTKEGEFTLSAMTSGIRRNWIQTIMKHVHPTTAPDVTSSLPEEKNKSSCSFETCPRPTEKQEAELGEPDPEQKRSRARERRREGRSKTFDWAEFRPIQQALAQERVGGVGPADTHEPLRPEAEPGELERERARRREERRKRFGMLDATDGPGTEDAALRMEVDRSPGLPMSDLKTHNVHVEIEQRWHQVETTPLREEKQVPIAPVHLSSEDGGDRLSTHELTSLLEKELEQSQKEASDLLEQNRLLQDQLRVALGREQSAREGYVLQATCERGFAAMEETHQKKIEDLQRQHQRELEKLREEKDRLLAEETAATISAIEAMKNAHREEMERELEKSQRSQISSVNSDVEALRRQYLEELQSVQRELEVLSEQYSQKCLENAHLAQALEAERQALRQCQRENQELNAHNQELNNRLAAEITRLRTLLTGDGGGEATGSPLAQGKDAYELEVLPRVKESEPQYLKQEISSLKDELQTALRDKKYASDKYKDIYTELSIAKAKADCDISRLKEQLKAATEALGEKSPDSATVSGYDIMKSKSNPDFLKKDRSCVTRQLRNIRSKSVIEQVSWDT
Consider B3, for which the oligomerization result in the data set on MRIP was “little oligomerization”.

B4: I919P/L926P: MRIP mutation employed by Mulder et al; double point mutation in CC5 (protein, UniProt Q6WCQ1 2-1025, looked up, variant I919P L926P)
Myosin phosphatase …: SAAKENPCRKFQANIFNKSKCQNCFKPRESHLLNDEDLTQAKPIYGGWLLLAPDGTDFDNPVHRSRKWQRRFFILYEHGLLRYALDEMPTTLPQGTINMNQCTDVVDGEGRTGQKFSLCILTPEKEHFIRAETKEIVSGWLEMLMVYPRTNKQNQKKKRKVEPPTPQEPGPAKVAVTSSSSSSSSSSSIPSAEKVPTTKSTLWQEEMRTKDQPDGSSLSPAQSPSQSQPPAASSLREPGLESKEEESAMSSDRMDCGRKVRVESGYFSLEKTKQDLKAEEQQLPPPLSPPSPSTPNHRRSQVIEKFEALDIEKAEHMETNAVGPSPSSDTRQGRSEKRAFPRKRDFTNEAPPAPLPDASASPLSPHRRAKSLDRRSTEPSVTPDLLNFKKGWLTKQYEDGQWKKHWFVLADQSLRYYRDSVAEEAADLDGEIDLSACYDVTEYPVQRNYGFQIHTKEGEFTLSAMTSGIRRNWIQTIMKHVHPTTAPDVTSSLPEEKNKSSCSFETCPRPTEKQEAELGEPDPEQKRSRARERRREGRSKTFDWAEFRPIQQALAQERVGGVGPADTHEPLRPEAEPGELERERARRREERRKRFGMLDATDGPGTEDAALRMEVDRSPGLPMSDLKTHNVHVEIEQRWHQVETTPLREEKQVPIAPVHLSSEDGGDRLSTHELTSLLEKELEQSQKEASDLLEQNRLLQDQLRVALGREQSAREGYVLQATCERGFAAMEETHQKKIEDLQRQHQRELEKLREEKDRLLAEETAATISAIEAMKNAHREEMERELEKSQRSQISSVNSDVEALRRQYLEELQSVQRELEVLSEQYSQKCLENAHLAQALEAERQALRQCQRENQELNAHNQELNNRLAAEITRLRTLLTGDGGGEATGSPLAQGKDAYELEVLLRVKESEIQYLKQEPSSLKDEPQTALRDKKYASDKYKDIYTELSIAKAKADCDISRLKEQLKAATEALGEKSPDSATVSGYDIMKSKSNPDFLKKDRSCVTRQLRNIRSKSVIEQVSWDT
As to B4, the oligomerization entry in the data set with MRIP was “little oligomerization”.
